Assay results taken from publication PMC11796320 (The Febs Journal, 2024).
Where “and” joins values, the source holds several entries; their conditions need not be identical. Identical values can stand only once.

Legend:
cryo-EM structure = target: the molecule itself; experiment: cryo-EM structure
[1] = target: the molecule itself; experiment: cryo-EM 2D classification

B1: full-length mature human contactin-2 (CNTN2), residues 29-1012, wild type (natural protein, UniProt Q02246 29-1012, looked up)
chain: LGSQTTFGPVFEDQPLSVLFPEESTEEQVLLACRARASPPATYRWKMNGTEMKLEPGSRHQLVGGNLVIMNPTKAQDAGVYQCLASNPVGTVVSREAILRFGFLQEFSKEERDPVKAHEGWGVMLPCNPPAHYPGLSYRWLLNEFPNFIPTDGRHFVSQTTGNLYIARTNASDLGNYSCLATSHMDFSTKSVFSKFAQLNLAAEDTRLFAPSIKARFPAETYALVGQQVTLECFAFGNPVPRIKWRKVDGSLSPQWTTAEPTLQIPSVSFEDEGTYECEAENSKGRDTVQGRIIVQAQPEWLKVISDTEADIGSNLRWGCAAAGKPRPTVRWLRNGEPLASQNRVEVLAGDLRFSKLSLEDSGMYQCVAENKHGTIYASAELAVQALAPDFRLNPVRRLIPAARGGEILIPCQPRAAPKAVVLWSKGTEILVNSSRVTVTPDGTLIIRNISRSDEGKYTCFAENFMGKANSTGILSVRDATKITLAPSSADINLGDNLTLQCHASHDPTMDLTFTWTLDDFPIDFDKPGGHYRRTNVKETIGDLTILNAQLRHGGKYTCMAQTVVDSASKEATVLVRGPPGPPGGVVVRDIGDTTIQLSWSRGFDNHSPIAKYTLQARTPPAGKWKQVRTNPANIEGNAETAQVLGLTPWMDYEFRVIASNILGTGEPSGPSSKIRTREAAPSVAPSGLSGGGGAPGELIVNWTPMSREYQNGDGFGYLLSFRRQGSTHWQTARVPGADAQYFVYSNESVRPYTPFEVKIRSYNRRGDGPESLTALVYSAEEEPRVAPTKVWAKGVSSSEMNVTWEPVQQDMNGILLGYEIRYWKAGDKEAAADRVRTAGLDTSARVSGLHPNTKYHVTVRAYNRAGTGPASPSANATTMKPPPRRPPGNISWTFSSSSLSIKWDPVVPFRNESAVTGYKMLYQNDLHLTPTLHLTGKNWIEIPVPEDIGHALVQIRTTGPGGDGIPAEVHIVRNGGTSMMVEN
modifications: N-linked glycans at Asn76, Asn198, Asn461, Asn477, Asn498, Asn525 (densities in the cryo-EM map)
stoichiometry N (cryo-EM structure): 2
stoichiometry N [1]: 4 and 6
